Laboratory results: paper PMC3699403

Legend:
[1] = target: STM3605t (STM3605 residues 5-107, SeMet-labeled and reductively methylated) (Salmonella enterica serovar Typhimurium LT2); test: crystal structure
[2] = target: STM3605f, full-length Se-labeled non-methylated variant (Salmonella enterica serovar Typhimurium LT2); test: crystal structure

Substance	stoichiometry N [1]	stoichiometry N [2]
STM3605t (STM3605 residues 5-107, SeMet-labeled and reductively methylated) (domain or fragment)	2	–
STM3605f, full-length Se-labeled non-methylated variant (natural protein)	–	2
